Experimental data: patent publication US20220251219A1 (published 2022)

Tests used:
[1] = target: T1, recombinant mouse Sortilin (mouse, UniProt Q6PHU5 74-825); experiment: flow cytometry, 293 cells expressing recombinant mouse Sortilin, 10 ug/ml antibody
T1 construct: also called mSort
Procedure: (§1) Cells were harvested, plated at 10⁵/ml in a 96 well plate, washed, and incubated in 100 μl PBS containing 10 μg/ml Mab and 2% FBS for 1 hour in ice. Cells were then washed twice and incubated in 100 μl PBS+2% FBS containing 5 μg/ml PE-conjugated anti-human secondary antibody for 30 minutes in ice. Cells were washed twice in cold PBS and data was acquired on a BD FACS Canto. Data analysis and calculation of MFI values was performed with FlowJo (TreeStar) software version 10.0.7.

[2] = target: T2, recombinant human Sortilin (human, UniProt Q99523 78-830); experiment: flow cytometry, 293 cells expressing recombinant human Sortilin, 10 ug/ml antibody
T2 construct: also called hSort; SORT1
Procedure: as §1

human Sortilin = human Sortilin (human, UniProt Q99523 78-830); experiment: cell-based or functional assay

| Binder | MFI [1] [MFI] | MFI [2] [MFI] | Percent reduction of Sortilin levels in U251 cells (human Sortilin) [%] | Fold increase in Progranulin levels in U251 cells (human Sortilin) [fold] |
| --- | --- | --- | --- | --- |
| anti-Sortilin antibody S-10 (antibody, V domains shown, IgG) VH: QVQLVQSGAEVKKPGASVKVSCKASGYTFTSYGISWVRQAPGQGLEWMGWISAYNGNTNYAQKLQGRVTMTTDTSTSTAYMELRSLRSDDTAVYYCARDPGGYGPTLYYYYGMDVWGQGTTVTVSS VL: EIVMTQSPATLSVSPGERATLSCRASQSVSSNLAWYQQKPGQAPRLLIYGASTRATGIPARFSGSGSGTEFTLTISSLQSEDFAVYYCQQYADWPPITFGGGTKVEIK | 19400 | 8660 |  |  |
| anti-Sortilin antibody S-40 (antibody, V domains shown, IgG) VH: not shown VL: EIVMTQSPATLSLSPGERATLSCRASQSVSSYLAWYQQKPGQAPRLLIYDASNRATGIPARFSGSGSGTDFTLTISSLEPEDFAVYYCQQRSALPFTFGGGTKVEIK | 2630 | 7410 |  |  |
| anti-Sortilin antibody S-51 (antibody, V domains shown, IgG) VH: QVQLVESGGGVVQPGRSLRLSCAASGFTFSSYGMHWVRQAPGKGLEWVAVISYDGSNKYYADSVKGRFTISRDNSKNTLYLQMNSLRAEDTAVYYCAKGLEYYDSSRLYYPYYYYMDVWGKGTTVTVSS VL: EIVLTQSPATLSLSPGERATLSCRASQSVSSYLAWYQQKPGQAPRLLIYDASKRATGIPARFSGSGSGTDFTLTISSLEPEDFAVYYCQQRSNYPITFGGGTKVEIK | 21900 | 12200 |  |  |
| anti-Sortilin antibody S-83 (antibody, V domains shown) VH: QLQLQESGPGLVKPSETLSLTCTVSGGSISSSSYYWGWIRQPPGKGLEWIGSIYYSGSTYYNPSLKSRVTISVDTSKNQFSLKLSSVTAADTAVYYCARGSPTWLRDYYMDVWGKGTTVTVSS VL: EIVLTQSPATLSVSPGERATLSCRASQSVSSNLAWYQQKPGQAPRLLIYGASTRATGIPARFSGSGSGTEFTLTISSLQSEDFAVYYCQQYNAFPPTFGGGTKVEIK |  |  | 48.1 |  |
| anti-Sortilin antibody S-69 (antibody, V domains shown) VH: QVQLQESGPGLVKPSQTLSLTCTVSGGSISSGGYYWSWIRQHPGKGLEWIGYIYYSGSTYYNPSLKSRVTISVDTSKNQFSLKLSSVTAADTAVYYCARDRGGTHFGADHYYYGMDVWGQGTMVTVSS VL: EIVMTQSPATLSVSPGERATLSCRASQSVSSSLAWYQQKPGQAPRLLIYGASTRATGIPARFSGSGSGTEFTLTISSLQSEDFAVYYCQQAADWPITFGGGTKVEIK |  |  | 23 |  |
| anti-Sortilin antibody S-4 (antibody, V domains shown, IgG) VH: not shown VL: EIVMTQSPATLSVSPGERATLSCRASQSVSSNLAWYQQKPGQAPRLLIYGASTRATGIPARFSGSGSGTEFTLTISSLQSEDFAVYYCQQFRVLPPTFGGGTKVEIK | 15700 | 9120 |  |  |
| anti-Sortilin antibody S-58 (antibody, V domains shown, IgG) VH: QVQLQESGPGLVKPSETLSLTCAVSGYSISSGYYWGWIRQPPGKGLEWIGSIYHSGNTYYNPSLKSRVTISVDTSKNQFSLKLSSVTAADTAVYYCARGPPELGKMYFQHWGQGTLVTVSS VL: EIVLTQSPATLSVSPGERATLSCRASQSVSSNLAWYQQKPGQAPRLLIYGASTRATGIPARFSGSGSGTEFTLTISSLQSEDFAVYYCQQDRKGPLTFGGGTKVEIK | 15100 | 7770 |  |  |
| anti-Sortilin antibody S-48 (antibody, V domains shown, IgG) VH: QVQLVESGGGVVQPGRSLRLSCAASGFTFSSYGMHWVRQAPGKGLEWVAVISYDGSNKYYADSVKGRFTISRDNSKNTLYLQMNSLRAEDTAVYYCARESGDRATLVYYYYYGMDVWGQGTTVTVSS VL: EIVMTQSPATLSVSPGERATLSCRASQSVSSNLAWYQQKPGQAPRLLIYSASTRATGIPARFSGSGSGTEFTLTISSLQSEDFAVYYCQQYNSWPITFGGGTKVEIK | 11900 | 8140 |  |  |
| anti-Sortilin antibody S-9 (antibody, V domains shown, IgG) VH: QVQLVQSGAEVKKPGASVKVSCKASGYTFTSYGISWVRQAPGQGLEWMGWISAYNGNTNYAQKLQGRVTMTTDTSTSTAYMELRSLRSDDTAVYYCARDPGGYGPTLYYYYGMDVWGQGTTVTVSS VL: EIVMTQSPATLSVSPGERATLSCRASQSVSSNLAWYQQKPGQAPRLLIYGASTRATGIPARFSGSGSGTEFTLTISSLQSEDFAVYYCQQYNIYPLTFGGGTKVEIK | 22200 | 10300 |  |  |
| anti-Sortilin antibody S-61 (antibody, V domains shown, IgG) VH: QVQLQESGPGLVKPSETLSLTCAVSGYSISSGYYWGWIRQPPGKGLEWIGSIYHSGSTYYNPSLKSRVTISVDTSKNQFSLKLSSVTAADTAVYYCARGSPRFYYGSGSYLDLFDIWGQGTMVTVSS VL: EIVMTQSPATLSVSPGERATLSCRASQSVSSNLAWYQQKPGQAPRLLIYGASTRATGIPARFSGSGSGTEFTLTISSLQSEDFAVYYCQEYLNYPITFGGGTKVEIK | 21800 | 7480 |  |  |
| anti-Sortilin antibody S-6 (antibody, V domains shown, IgG) VH: not shown VL: EIVMTQSPATLSVSPGERATLSCRASQSVSSNLAWYQQKPGQAPRLLIYGASTRATGIPARFSGSGSGTEFTLTISSLQSEDFAVYYCQQVANYPRTFGGGTKVEIK | 25600 | 11100 |  |  |
| anti-Sortilin antibody S-64 (antibody, V domains shown) VH: QVQLQESGPGLVKPSETLSLTCAVSGYSISSGYYWGWIRQPPGKGLEWIGSIYHSGSTYYNPSLKSRVTISVDTSKNQFSLKLSSVTAADTAVYYCARAEHRGPRYFDLWGRGTLVTVSS VL: DIQMTQSPSSLSASVGDRVTITCRASQSINSYLNWYQQKPGKAPKLLIYAASSLQSGVPSRFSGSGSGTDFTLTISSLQPEDFATYYCQQLDSTPITFGGGTKVEIK |  |  | 37.4 |  |
| anti-Sortilin antibody S-65 (antibody, V domains shown, IgG) VH: QVQLQESGPGLVKPSETLSLTCAVSGYSISSGYYWGWIRQPPGKGLEWIGSIYHSGSTYYNPSLKSRVTISVDTSKNQFSLKLSSVTAADTAVYYCAREGQLPTGTFDYWGQGTLVTVSS VL: not shown | 17900 | 8070 |  |  |
| anti-Sortilin antibody S-76 (antibody, V domains shown) VH: QVQLQESGPGLVKPSQTLSLTCTVSGGSISSGGYYWSWIRQHPGKGLEWIGSIYYSGSTYYNPSLKSRVTISVDTSKNQFSLKLSSVTAADTAVYYCARGVGIQQQLVLGFDPWGQGTLVTVSS VL: DIQMTQSPSSLSASVGDRVTITCRASQSISSFLNWYQQKPGKAPKLLISAASSLQSGVPSRFSGSGSGTDFTLTISSLQPEDFATYYCQQSYREPITFGGGTKVEIK |  |  | 20.3 |  |
| anti-Sortilin antibody S-65 (antibody, V domains shown) VH: QVQLQESGPGLVKPSETLSLTCAVSGYSISSGYYWGWIRQPPGKGLEWIGSIYHSGSTYYNPSLKSRVTISVDTSKNQFSLKLSSVTAADTAVYYCAREGQLPTGTFDYWGQGTLVTVSS VL: not shown |  |  | 37.3 |  |
| anti-Sortilin antibody S-64 (antibody, V domains shown, IgG) VH: QVQLQESGPGLVKPSETLSLTCAVSGYSISSGYYWGWIRQPPGKGLEWIGSIYHSGSTYYNPSLKSRVTISVDTSKNQFSLKLSSVTAADTAVYYCARAEHRGPRYFDLWGRGTLVTVSS VL: DIQMTQSPSSLSASVGDRVTITCRASQSINSYLNWYQQKPGKAPKLLIYAASSLQSGVPSRFSGSGSGTDFTLTISSLQPEDFATYYCQQLDSTPITFGGGTKVEIK |  | 7930 |  |  |
| anti-Sortilin antibody S-2 (antibody, V domains shown, IgG) VH: not shown VL: DIQMTQSPSSLSASVGDRVTITCRASQSISSYLNWYQQKPGKAPKLLIYAASSLQSGVPSRFSGSGSGTDFTLTISSLQPEDFATYYCQQSDVSPITFGGGTKVEIK | 22400 | 8430 |  |  |
| anti-Sortilin antibody S-16 (antibody, V domains shown, IgG) VH: QVQLVQSGAEVKKPGSSVKVSCKASGGTFSSYAISWVRQAPGQGLEWMGGIIPIFGTANYAQKFQGRVTITADESTSTAYMELSSLRSEDTAVYYCARSPYSGTRDFDLWGRGTLVTVSS VL: DIQMTQSPSSVSASVGDRVTITCRASQGISSWLAWYQQKPGKAPKLLIYAASNLQSGVPSRFSGSGSGTDFTLTISSLQPEDFATYYCQQGNSYPITFGGGTKVEIK |  | 6280 |  |  |
| anti-Sortilin antibody S-74 (antibody, V domains shown) VH: QVQLQESGPGLVKPSQTLSLTCTVSGGSISSGTYYWSWIRQHPGKGLEWIGYIYYSGSTYYNPSLKSRVTISVDTSKNQFSLKLSSVTAADTAVYYCARGVGRYRVADYWGQGTLVTVSS VL: EIVMTQSPATLSLSPGERATLSCRASQSVSSYLAWYQQKPGQAPRLLIYDSSNRATGIPARFSGSGSGTDFTLTISSLEPEDFAVYYCQQETNMPPITFGGGTKVEIK |  |  | 22.1 |  |
| anti-Sortilin antibody S-12 (antibody, V domains shown) VH: QVQLVQSGAEVKKPGASVKVSCKASGYTFTSYGISWVRQAPGQGLEWMGWISAYNGNTNYAQKLQGRVTMTTDTSTSTAYMELRSLRSDDTAVYYCARDLPKYKWGWFDPWGQGTLVTVSS VL: not shown |  |  | 12 |  |
| anti-Sortilin antibody S-12 (antibody, V domains shown, IgG) VH: QVQLVQSGAEVKKPGASVKVSCKASGYTFTSYGISWVRQAPGQGLEWMGWISAYNGNTNYAQKLQGRVTMTTDTSTSTAYMELRSLRSDDTAVYYCARDLPKYKWGWFDPWGQGTLVTVSS VL: not shown | 18800 | 9760 |  |  |
| anti-Sortilin antibody S-55 (antibody, V domains shown, IgG) VH: QVQLQESGPGLVKPSETLSLTCAVSGYSISSGYYWGWIRQPPGKGLEWIGSIYHSGSTYYNPSLKSRVTISVDTSKNQFSLKLSSVTAADTAVYYCARGRPELGWDKYFQHWGQGTLVTVSS VL: DIQMTQSPSSVSASVGDRVTITCRASQGISRWLAWYQQKPGKAPKLLIYAASSLQSGVPSRFSGSGSGTDFTLTISSLQPEDFATYYCQQANALPTFGGGTKVEIK | 21400 | 9480 |  |  |
| anti-Sortilin antibody S-60 (antibody, V domains shown) VH: QVQLQESGPGLVKPSETLSLTCAVSGYSISSGYYWGWIRQPPGKGLEWIGTIYHSGSTYYNPSLKSRVTISVDTSKNQFSLKLSSVTAADTAVYYCARQGSIKQGYYGMDVWGQGTTVTVSS VL: not shown |  |  | 59.5 | 2.24 |
